Experimental findings from publication PMC8309402, “Evolutionary Implications of a Peroxidase with High Affinity for Cinnamyl Alcohols from Physcomitrium patens, a Non-Vascular Plant” (Plants, 2021) are described below.

Substrate in data set [1]: COc1cc(/C=C/CO)cc(OC)c1O
The data set can be described thus: purified protein. The format is biochemical, Physcomitrium patens. The conditions noted are these: 0.5 mM H2O2 (saturating), 50 mM sodium acetate pH 5.0, 1-110 μM substrate.

Substrate in data set [2]: COc1cc(/C=C/CO)ccc1O
The data set can be described thus: purified protein. The format is biochemical, Physcomitrium patens. Particulars: 0.5 mM H2O2 (saturating), 50 mM sodium acetate pH 5.0, 5-100 μM substrate.

B1: PpaPrx19 (Physcomitrium patens) (protein)
chain: TTDFYAKSCPRIHSIVKAEIKKAVNVEKRMAASLIRLHFHDCFVHGCDGSILLDSIPGMDSEKFAPPNDRSARGYEAIDAIKVALEKACPRTVSCADILAIAYRDSAVEVGLVPEYPVPFGRRDSLRAAPIAEVNLRLPGPDFDISTLKASFANQSLDERDLVALSGAHTIGRVRCQFVRLFLNDPGTNADFKKELARLCAPTVDAFTLQNLDLKTPDKFDNNYYKNLRRGEGIIRSDQVLWSSEGTHQKITKDFAENQENFFRQFIESSIKMGKIKPPPGSPSEIRLNCHQANPRPLIEQVVAVE
notes: native, purified from gametophores (ammonium sulfate, phenyl Sepharose, SP Sepharose); mature secreted protein, 332 aa precursor incl; 26 aa N-terminal signal peptide (predicted); 46 kDa lipase (XP_001755452) co-purified
Consider B1, for which, in “purified protein [1]”, the Km worked out at 20.8 µM, the kcat was 281 s⁻¹ and the kcat/Km was found to be 1.35e+07 M⁻¹ s⁻¹. For the same protein, in “purified protein [2]”, the Km was found to be 16.7 µM, the turnover number (kcat) worked out at 3940 s⁻¹ and the kcat/Km is 2.36e+08 M⁻¹ s⁻¹.

As usually defined, the Km is the substrate concentration at which the rate is half of its maximum. As usually defined, the kcat is the number of substrate molecules converted per active site and unit of time at saturation. The term kcat/Km denotes the second-order rate constant that governs catalysis at low substrate concentration.
